Here are results for one molecule from patent US20210079037A1, “LIGHT-SWITCHABLE POLYPEPTIDE AND USES THEREOF” (TECHNISCHE UNIVERSITÄT MÜNCHEN, priority 2017, published 2021).

For this experiment, the target named is mouse anti-6×His antibody alkaline phosphatase (AP) conjugate (Arigo Biolaboratories). The experiment can be described thus: ELISA, curve fit; ProtL^Caf337-ABD in a dilution series on HSA-coated plate, Ig-AP conjugate at 1:1000; ground state (trans-Caf). (ELISA stands for enzyme-linked immunosorbent assay.)

Numbered stars: 1 amine (or outer) side, 2 acyl side, 3 side chain; on linkers, the order of the positions; unused ones are H or OH. Square brackets hold non-standard residues; d marks the D form. Caf = 4′-carboxyphenylazophenylalanine, O=C([C@H](Cc1ccc(/N=N/c2ccc(C(=O)[*:3])cc2)cc1)N[*:1])[*:2]

B1: ProtL^Caf337-ABD (designed binder)
chain: MKEEVTIKVNLI[Caf]ADGKTQTAEFKGTFEEATAKAYANADLSAKENGEYTADLEDGGNTINIKFAGGAVDANSLAEAKVLANRELDKYGVSDYYKNLINNAKTVEGVKALIDEILAALP
Broadly, the Kd is the constant that tells how readily two partners part at equilibrium. Lower therefore signals higher affinity. In turn, B1 showed a dissociation constant (Kd) of 140 nM. This counts as sub-micromolar.
